Experimental data: patent US20170100490A1, “Prodrug Comprising a Drug Linker Conjugate” (Ascendis Pharma A/S, priority 2008, published 2017)

Experiments:
[1] = human, in vivo; cited from earlier work
physchem = conditions: buffer A (phosphate buffer), pH 7.4
Experimental: In vitro linker hydrolysis and release of drug: Compounds were dissolved in buffer A (10 mM sodium phosphate, 140 mM NaCl, pH 7.4, 3 mM EDTA) or buffer B (0.1 M Acetat 3 mM EDTA, pH 4.0), and solution was filtered through a 0.2 μm filter and incubated at 37° C. Samples were taken at time intervals and analyzed by RP-HPLC at 215 nm and ESI-MS. UV-signals correlating to liberated drug molecule were integrated and plotted against incubation time. In case of identical retention times of prodrug and drug, ratio of mass signals was used to determine release kinetics.
For hydrogel conjugates, compounds were suspended in buffer A and incubated at 37° C. Samples were taken after centrifugation of the suspension and analyzed by RP-HPLC at 215 nm. UV-signals correlating to liberated drug molecule were integrated and plotted against incubation time.
Curve-fitting software was applied to estimate the corresponding halftime of release.

Exendin-4: GLP-1 receptor agonist peptide; high potency agonist at the glucagon-like peptide 1-(7-36)-amide receptor
Plasma half-life [1]: 0.433 h

CCCCCCCCCCCC(=O)NC(CCCCNC(=O)CCOCCOCCOCCOCCOCCOCCOCCOCCOCCOCCOCCOCCNC(=O)CCN1C(=O)CC(SCCNC(=O)CN2CCN(CCNC(=O)[C@@H]3CCCC[C@@H]3C(=O)N3CCN(C4=Nc5ccccc5Oc5ccc(Cl)cc54)CC3)CC2)C1=O)C(N)=O (some centres unmarked) [Compound 5]
half-life (physchem): 22 h
